# Marks after values point to notes of the source that are not given here.
# B1: SEQ ID NO: 1: mature amino acid sequence of a wild type GH25 lysozyme from Acremonium alcalophilum with N-terminal SPIRR (protein)
# chain: SPIRRRIPGFDISGWQPTTDFARAYANGDRFVYIKATEGTTFKSSAFSRQYTGATQNGFIRGAYHFAQPAASSGAAQARYFASNGGGWSKDGITLPGALDIEYNPNGATCYGLSQSAMVNWIEDFVTTYHGITSRWPVIYTTTDWWTQCTGNSNRFANRCPLWIARYASSVGTLPNGWGFYTFWQYNDKYPQGGDSNWFNGDASRLRALANGD
# modifications: Wild type sequence with N-terminal SPIRR
# Columns and labels:
# [1] = In vivo piglet trial, growth performance; parameters: species or system weaned piglets
# Experimental: The trial was performed from Oct. 23 to Dec. 4, 2014 at the Research Center for Animal Nutrition (DSM Nutritional Products France, F-68305 Village-Neuf) according to the official French guidelines for experiments with live animals. One hundred and four castrated male crossbred (Large-White (female)×Redon (male)) weaned piglets having 28 days of age supplied by the commercial farm “[…] du Rhin” located in Balgau (France), were used in a 42-day experiment. The initial bodyweight of the piglets was 7.88±0.675 kg. They were sorted by body weight into 32 groups of 3 or 4 piglets and randomly allotted to each dietary treatment. Each group of animals was placed in one flat-deck cages and allocated to one of the different treatments. Each treatment was replicated with 8 cages using a total of 26 animals (6 cages of 3 animals/treatment and 2 cages of 4 animals/treatment) per treatment. […] Animals were housed in an environmentally controlled room. Room temperature was initially 27° C. and was lowered weekly by about 2° C. until 21-22° C. and relative humidity percentage was 50%. The experimental diets (Pre-Starter and Starter) were fed ad libitum in two feeding phases from day 0 to 14 (phase 1, Pre-starter) and day 14 to 42 (phase 2, Starter). The ingredient composition and the calculated nutrient levels of the experimental diets for phases 1 and 2 are presented in table 11. Both diets were formulated to meet the animals' requirements according NRC (2012) and were fed in pelleted form. Pelleting conditions were at 70° C. for 30 seconds. […] No additional enzymes (e.g. phytase) were added to the feed. […] Appropriate amount of the liquid preparations of lysozyme was diluted in water and sprayed onto the respective pelleted feed to get the final concentrations in the feed corresponding to the different treatments. For procedural balance of all treatments the same volume of water were also sprayed onto the pellets of the control diets. Body weight of the individual animals and feed consumption per pen were recorded on days 14 and 42 of the study. […] The experimental unit was the piglet, except for ADFI and FCR which were measured by cage, and in both cases, treatment was used as class variable. One-factorial ANOVA and Student-Newman-Keuls test was used to assess differences among means in treatment groups.
# [2] = In vivo broiler trial 2, growth performance; parameters: species or system male broiler chickens
# Experimental: No additional enzymes (e.g. phytase) were added to the feed. The experimental diets (Starter and Grower) were based on soybean meal, wheat and rye (12%) as main ingredients (Table 6). The diets were formulated to contain 222 g crude protein and 12.5 MJ/kg MEN for the starter period and 204 g crude protein and 12.7 MJ/kg MEN for the grower period.
# [3] = Grower (d 22-36), 6.25 mg/kg feed
# [4] = Grower (d 22-36), 12.5 mg/kg feed
# [5] = Grower (d 22-36), 25 mg/kg feed
# [6] = Starter (d 1-22), 6.25 mg/kg feed
# [7] = Starter (d 1-22), 12.5 mg/kg feed
# [8] = Starter (d 1-22), 25 mg/kg feed
# [9] = Whole period (d 1-36), 6.25 mg/kg feed
# [10] = Whole period (d 1-36), 12.5 mg/kg feed
# [11] = Whole period (d 1-36), 25 mg/kg feed
molecule,measurement,setting,value
B1,"ADFI, % relative NC","[1]; day 0-14, 50 ppm",90.0%
same,"ADFI, Mean","[1]; day 0-14, 50 ppm",324 g/day
same,"ADWG, % relative NC","[1]; day 0-14, 50 ppm",96.2%
same,"ADWG, Mean","[1]; day 0-14, 50 ppm",279 g/day
same,"FCR, % relative NC","[1]; day 0-14, 50 ppm",94.4%
same,"FCR, Mean","[1]; day 0-14, 50 ppm",1.170^a
same,"ADFI, % relative NC","[1]; day 0-42, 50 ppm",93.1%
same,"ADFI, Mean","[1]; day 0-42, 50 ppm",683^a g/d
same,"ADWG, % relative NC","[1]; day 0-42, 50 ppm",102.4%
same,"ADWG, Mean","[1]; day 0-42, 50 ppm",511 g/day
same,"EPEF, % relative NC","[1]; day 0-42, 50 ppm",113.0%
same,"EPEF, Mean","[1]; day 0-42, 50 ppm",383
same,"FCR, % relative NC","[1]; day 0-42, 50 ppm",90.4%
same,"FCR, Mean","[1]; day 0-42, 50 ppm",1.341^a
same,"ADFI, % relative NC","[1]; day 14-42, 50 ppm",92.7%
same,"ADFI, Mean","[1]; day 14-42, 50 ppm",862^a g/d
same,"ADWG, % relative NC","[1]; day 14-42, 50 ppm",104.0%
same,"ADWG, Mean","[1]; day 14-42, 50 ppm",627 g/day
same,"FCR, % relative NC","[1]; day 14-42, 50 ppm",89.3%
same,"FCR, Mean","[1]; day 14-42, 50 ppm",1.379^a
same,Improvement on FCR compared to the negative control,"[1]; overall period (day 0 to day 42), 50 mg/kg",9.6%
same,Improvement to FCR compared to NC,"[1]; starter period, day 15 to day 42, 50 mg/kg",11.3%
same,Improvement of ADWG compared to the negative control diet,"[1]; starter period, 50 mg/kg",4.0%
same,EPEF improvement compared to the negative control,"[1]; whole period, 50 mg/kg",13.0%
same,Improvement of ADWG compared to the negative control diet,"[1]; whole period, 50 mg/kg",2.4%
same,FCR,[2]; [3],1.753^a
same,"FCR, Relative to C (%)",[2]; [3],101.9%
same,Feed intake,[2]; [3],2705 g/b
same,"Feed intake, Relative to C (%)",[2]; [3],99.1%
same,Weight gain,[2]; [3],1545 g/b
same,"Weight gain, Relative to C (%)",[2]; [3],97.4%
same,FCR,[2]; [4],1.692^a
same,"FCR, Relative to C (%)",[2]; [4],98.3%
same,Feed intake,[2]; [4],2671 g/b
same,"Feed intake, Relative to C (%)",[2]; [4],97.8%
same,Weight gain,[2]; [4],1581 g/b
same,"Weight gain, Relative to C (%)",[2]; [4],99.7%
same,FCR,[2]; [5],1.686^a
same,"FCR, Relative to C (%)",[2]; [5],98%
same,Feed intake,[2]; [5],2753 g/b
same,"Feed intake, Relative to C (%)",[2]; [5],100.8%
same,Weight gain,[2]; [5],1633 g/b
same,"Weight gain, Relative to C (%)",[2]; [5],102.9%
same,FCR,[2]; [6],1.403^ab
same,"FCR, Relative to C (%)",[2]; [6],101.8%
same,Feed intake,[2]; [6],1551^ab g/b
same,"Feed intake, Relative to C (%)",[2]; [6],105.4%
same,Weight gain,[2]; [6],1106 g/b
same,"Weight gain, Relative to C (%)",[2]; [6],103.6%
same,FCR,[2]; [7],1.339^b
same,"FCR, Relative to C (%)",[2]; [7],97.1%
same,Feed intake,[2]; [7],1403^d g/b
same,"Feed intake, Relative to C (%)",[2]; [7],95.4%
same,Weight gain,[2]; [7],1049 g/b
same,"Weight gain, Relative to C (%)",[2]; [7],98.3%
same,FCR,[2]; [8],1.332^b
same,"FCR, Relative to C (%)",[2]; [8],96.6%
same,Feed intake,[2]; [8],1434^cd g/b
same,"Feed intake, Relative to C (%)",[2]; [8],97.4%
same,Weight gain,[2]; [8],1076 g/b
same,"Weight gain, Relative to C (%)",[2]; [8],100.9%
same,FCR,[2]; [9],1.604^a
same,"FCR, Relative to C (%)",[2]; [9],101.6%
same,Feed intake,[2]; [9],4249 g/b
same,"Feed intake, Relative to C (%)",[2]; [9],101.4%
same,Weight gain,[2]; [9],2651 g/b
same,"Weight gain, Relative to C (%)",[2]; [9],99.9%
same,FCR,[2]; [10],1.548^bc
same,"FCR, Relative to C (%)",[2]; [10],98.1%
same,Feed intake,[2]; [10],4069 g/b
same,"Feed intake, Relative to C (%)",[2]; [10],97.1%
same,Weight gain,[2]; [10],2630 g/b
same,"Weight gain, Relative to C (%)",[2]; [10],99.1%
same,FCR,[2]; [11],1.543^c
same,"FCR, Relative to C (%)",[2]; [11],97.8%
same,Feed intake,[2]; [11],4181 g/b
same,"Feed intake, Relative to C (%)",[2]; [11],99.8%
same,Weight gain,[2]; [11],2709 g/b
same,"Weight gain, Relative to C (%)",[2]; [11],102.1%
same,Improvement of FCR compared to the control diet,"[2]; day 1 to day 36, 12.5 mg/kg",1.9%
same,Improvement of FCR compared to the control diet,"[2]; day 1 to day 36, 25 mg/kg",2.2%
same,Improvement of weight gain compared to C,"[2]; day 1 to day 36, 25 mg/kg",2.0%
same,Improvement of FCR compared to the control diet,"[2]; grower period, 25 mg/kg",2.0%
same,Improvement of weight gain compared to the control diet,"[2]; grower period, 25 mg/kg",2.9%
same,Improvement of weight gain compared to the control diet,"[2]; starter period, 6.25 mg/kg",3.6%
same,Improvement of FCR compared to the control diet,"[2]; starter period, 12.5 mg/kg",2.9%
same,Improvement of FCR compared to the control diet,"[2]; starter period, 25 mg/kg",3.4%

# Reference: patent US10568344B2, “Methods of improving animal performance” (Novozymes A/S, priority 2015, dated 2020)
